Assay: soluble on expression in E. coli; label from the status in PepcDB or PDB records

Sequence | soluble on expression in E. coli
MNDSILEPKHRGNVREIAAIDLGSNSFHMIVARIVNGSIQVLSRLKQKVKLAEGLDENAVLNQEAITRGVNCLALFAERLQGFPMENVNVVGTYTLRRAVNNDEFLRQAAKVFPYPINIISGQTEAKTIYAGVCHTQPEKGRKLVIDIGGGSTEMIIGDDFTPLMAESRHMGCVSFATQFFTDGIISPENFQRARQSAVNKIEDLGLEYRKLGWQSVLGSSGTIKTVAQVIATNLDPNGTITAERLNALIEQTLQAKHFTELNINGLNQDRVDVFVPGLAILSAVFDVFHIQQMRYSDGALREGVIYSLEKNFQVADIRASTALEHHHHHH | not soluble
MSLNWMELSIVVNHEVEYDVTEILESYGSNGVVIEDSNILEEQPVDKFGEIYDLNPEDYPEKGVRLKAYFNEFTYNENLKSNINYEILSLQQIDKTIYDYQEKLIAEVDWENEWKNYFHPFRASKQFTIVPSWESYVKENDNELCIELDPGMAFGTGDHPTTSMCLKAIETFVKPTDSVIDVGTGSGILSIASHLLGVQRIKALDIDEMAVNVAKENFKKNHCDDAIEAVPGNLLKNENEKFNIVIANILAHIIEEMIEDTYNTLIEDGYFITSGIIEEKYQDIESQMKRIGFKIISVEHDNGWVCIVGQKVSEGHHHHHH | soluble
MSKTVTIRRPSPTKTSEEPAAHQTPIFTQTAAEMLGITSLNTEAAELLEFLSREKLKEIVRLSAKWTQKSARRRMAVADVEHAIRSTRQCGGLNISSVDTLNLGIQQLQPIQGTSTGIYSFLKSSADVDVDKEDTETFIKIPRDLRVISYPLVNEGQPVQSEYTVNVDEDDGNFFEKIVPEVMTMIPEKNTPSSSTTSSLQMFRDAVKTAKIDQKVGLKPSTIEILTVEQQIFMKDIITVCMGQDDKKRHEALYTLETDAGLQVFLPHLTERICKSISANISQRCLSLIIYAGRVLRSLSHNKACDMTVTLHHVLPALLSCCVGRNMCLRPETDNHWALRDFSAKTLVGLVRDQVDKHDAGRTARRLFDFSHRIFRDTGSSFSMIYGTVHILQEFVAGPKKAAWLLTELGETNARCKSHIESGSRIGASQLSIQEAQKLNQQILKCENSIRNRYNLQQQAPGVPINRRFH | not soluble
MAQFESGVKYVPYSQEQVFNKLSDLSNLESVRDKLADKVQGMEFDSDSLSFTVQGISITLRIIEREPYKCVKFESEKSPVPMNLWIQILPVEAGQAKLKVTIRAEVNMFMKAMVAKPLQDGVDKLAEMLSMIPYLEHHHHHH | soluble
MNNWKLILPLMMSGSLIACTSTQTTTEPVEPETPKVEQPVTVEPEVKPEVEPKPEVKPKPETKPEKKPEPKPEKPVKVQKTPDGMLILGSEEWVYVPAIDQTFKARVDTGATTSSISATEIVPFERDGKDWVQFKIDINGKTSKEFKVPVERWAKVKQSSSDEVDKRAVVVAYIQVGDYKEKTEFTLADRDHMKFPILLGRSFFRDIAVVDVSKKYIQDKPTKSTKK | not soluble
MALHDENVVWHSHPVTVQQRELHHGHRGVVLWFTGLSGSGKSTVAGALEEALHKLGVSTYLLDGDNVRHGLCSDLGFSDADRKENIRRVGEVANLMVEAGLVVLTAFISPHRAERQMVRERVGEGRFIEVFVDTPLAICEARDPKGLYKKARAGELRNFTGIDSVYEAPESAEIHLNGEQLVTNLVQQLLDLLRQNDIIRS | soluble
APIKGVTFGEDTVWEVQGYKNVRITFELDERVDKVLNEKCSVYTVESGTEVTEFACVVAEAVVKTLQPVSDLLTNMGIDLDEWSVATFYLFDDAGEENFSSRMYCSFYPPDE | soluble
GPGSMGNGCCGCCDAKPDYKLGRPLVSGKTTPCFNDGRLFKIVKGDIWYFYNDTQDYQMKVTADFGNGSNIVAMSDTELVRKNDSGACTATVSVFPLETKAMVQTKEVNGFNVKYSGIAFTDADRQKLRQKAAAQVSADLAEMRKLRERNPKVNNQNRLLKVARGKGKMYVDTSFPPTSQSLIRSGIDSDPDACLKRPETIAWRRPEDFLPKKWHPKIRLFGNISPKDISQGQLGDCYYLCALAALAEHDAAIKGIFKNHHGCCIRSQERKHGAWRVNLNISGWWRTIIIDSYLPTVQLLPVFARNRNHPNELWVSFAEKAYAKVFGSYQAIVAGYPWQALEDLTGFPAYNFGNMWRTAQTDTETRKKLFDSLHRWNKKYLICIATPSNGALKMAGKQLSANQWEALFEKAGLRIGHAYSVLDVRHFPLHRLCMLKIRNPWGSHVEWSGDWGDDSPLWNRYPFIKLACRPEKKADGIFWMEWRDVSKFFDSGSVCFRRGHWFRSWYDYRVLGSFEDLVCDTALLIIVNKTSQFPAYISLHQKDCRGLATSDPDSKYACVMISISEGDINGSQQKVVANSSENPEEPSTEYLFQESRSVSLYYKFTKGHKYLVIPRRMKSSTGNNVPKKKYVIALRTQTKVSSEDVVVNIVRLDKNNAVFKNVASFDAGTPTSLNTLYQIKDGNNVFRTYRSDNLRKGKKQHNAEFELVM | not soluble
MGHHHHHHEFMLKNDDFVIAKNQLGNIVPNSVGVIRAVNGKSAMVLFIGLNELKRVDFSELEAIDIYRTGKGYDKKICNICHILKNTDGFEINQTDAKGRKTTRPSCRECRKNIDGVKLSSTEKKKMDEIAPPKGSVFTCPICEKRSIVGVTANLVHDHNHDTGWGREWICDSCNTGLGRFKDNPKFLEKVIEYLKKYEK | soluble
MGHHHHHHSHMLRILKKDCALTGGEVTLANQTKIFYVIKAPSLCSLVGSPSSDSVTSQELFKTFPCETPLSMPLVSTSNPLLSIVRLMVSPKPYDLTGVLCFGEDHETHYILRRVAKILTMTQEELDTICDIELHFSSNETLSSNRVPSRLTESIFPGLVPTVHFPQNMILSRGFFTGGNGPIIKHVAQTHHLTSDFVARVFYALKTPQAHAPGAAQLYRGLQIMNHAHNGLDFFPSDSDINDMQQMFLKHVLLSRKGTDSCAQMFFQAYLPVAPEVLGPEVIERVELALAKIELFANNTVFCMSTISTIVRPRIQVTTSANIKYIRMANKYFTMFPPINKDTAVIFGAAVLDQICKETPIREIVLVLRKYAHVVRRPHTPTIKLYTVLTL | not soluble
MSLGYRVGNSDSTSLLSAFAPPERAKKKSKEKRPLQAARFLSLLYPKTDPHSAVQDPSLVHEEHQTRLAYLQDRLCSTGDILKNTRTLETIAAYKQAVKEFVQYAIKHNYTTESKSSIRIDRGTGMPDTVIFTKIKVIDQKLASFVRELMSHQVDQLTVLQKTEEIYGMLVDLLIEGHHHHHH | soluble
MGSDKIHHHHHHMSVPQRPHQFVLTLSCPSAAGQVAAVVGLLDRHRCYVDELTVFDDDLSARFFVRCVFHATDDADALRVDALRREFEPIAERFRMQWAIHDVAARPKVLIMVSKLEHCLADLLFRWKMGELKMDIVGIVSNHPDFAPLAAQHGLPFRHFPITADTKAQQEAQWLDVFETSGAELVILARYMQVLSPEASARLANRAINIHHSFLPGFKGAKPYHQAHARGVKLIGATAHFVTDDLDEGPIIEQVVERVDHSYRPEQLLAVGRDVECITLARAVKAFIERRVFLNGDRTVVFQ | not soluble
GPGSMPPTHLLPTIDVSLRDKLSRFVESRGLLQMALEIATDDERRFDLAVQLKQLLLAHEIASAANVASHWKQVGDIALEQGYFEMAIESLEKCNDWSGLLLIYTSLNDMEAISRLGDRCLQRGQANLAFTCYHLTQRHAECVELLQKTGKTGDAAFYARTYYPSLIEDAVAKWRVSVASIPRVSQALASPAAYPNLFPSLRNVDLLPPKGSEADAPLNAQPPPPGASASLHGSCTAPTVADWFQPAAAAPQQLMHPPPLPDNVDSEPSGMQELADEEETWGED | soluble
MRPGGYPKGVQARAWVEVDLAALWANYRLLAGRAGGEVIPVLKADAYGHGALPLARFLEGKGVGRFAVATLEEGRRLREGGIKGEVLLLGSLHPLEAEEALRLGLVPTLSNLEAAEALSQRARALGLVPRAHLKVDTGMNRVGFPSEEAVSALRAVEALGVRVEGVYTHLATAGEDAAFVETQRRRFQEVRRALGEGYFYHLENSLGLLRHGATAGVRVGLALYGLVPGFGLRPILRILARPTLVKRLKAGDRVGYGGVYVARGGEWLATLPVGYADGLPWGAVRFVKGPDGRLLEVAGRISMDQTTVLLPGPVGLEAVFEVLSADFGPTGLLAWAEARGTLPYEVAVHLSRRLPRRYLE | soluble

— the DeepSol protein solubility set
